The text below walks through data of US20220177587A1, “METHODS AND USES OF VARIANT CD80 FUSION PROTEINS AND RELATED CONSTRUCTS” (Alpine Immune Sciences, Inc., priority 2018, published 2022).

Series [1] relates to huPD-L1-expressing MC38 tumors. Nature of the series: huPD-L1 MC38 tumor model, IP or IT delivery. The series is classed as in vivo, mouse. As to the method:
The MC38 cell line was transduced with human PD-L1 (huPD-L1) Subconfluent cells (˜80% confluent) were harvested on the day of implantation (study day 0), washed twice and brought to a final concentration of 15×10^6 cells/mL in DPBS. Female C57BL/6NJ mice (Jackson Labs, USA) were implanted subcutaneously with approximately 1.5×10^6 cells (0.1 mL) in the right mid-flank region.
On day 7, mice were randomized into six groups, with each group having a similar mean tumor volume (46.6 mm^3).
Tumor volume was measured as described in Example 21 to assess anti-tumor activity. Median tumor growth curves among individual treated mice over time were plotted.
On day 11 post-tumor cell implant and prior to dosing of test articles, five mice from each of Group 1-4 and Group 6 were sacrificed, and the tumors were harvested, weighed and processed for ex vivo tumor analysis. The MC38 cells at time of implant and tumors harvested from a subset of mice on day 11 by enzymatic digestion were evaluated for expression of huPD-L1 or human IgG (to detect Fc of cell-bound test molecules) by flow cytometry. The percent positive and median fluorescent intensity (MFI) of huPD-L1 and huIgG were quantified on the CD45-negative subset of tumor cells.
Tumors at day 11 were also evaluated for CD8+ T cells and for antigen-specific CD8+ T cells within the CD3+ cell population. p15E is an MHC class I restricted T cell antigen expressed in the MC38 tumor cell lines derived from C57BL/6 mice. A mouse MHC class I p15E tetramer labeled with PE (MBL International Corp.) was used to detect the p15E-MHC class I restricted T cell receptor.

Series [2] can be described thus: Mouse PK model. The series is classed as in vivo. The settings on record: mouse PK model estimate. An excerpt: A PK model was designed as a two compartment model with intercompartmental distribution (Q) between the first compartment (Central Compartment, V1) and the second compartment (Peripheral Compartment, V2). To capture intraperitoneal (IP) or subcutaneous (SC) injection routes, a third compartment (Depot Compartment) was included with a first-order rate constant (Ka) linking the third compartment uni-directionally to the first compartment. The model also included a constant F to account for loss in the amount of drug available to diffuse from the third compartment (Depot Compartment) to the first compartment (Central Compartment, V1) due to IP or SC injection. The total amount of available drug in the third compartment (Depot Compartment) is described as F×Dose. For intravenous injections (IV), the third compartment (Depot Compartment) was omitted.
Drug clearance (CL) from the first compartment (Central Compartment, V1) was modeled differently for each species. In the mouse model, a time-dependent increase in clearance due to the formation of anti-drug antibodies was accounted for as follows:
For monkeys, linear clearance from the first compartment (Central Compartment, V1) was assumed.
PK was also compared in tumor-bearing versus non-tumor-bearing mice. […] All treatments were administered IP. PK was determined in tumor-bearing mice in all groups and compared to the predicted PK in non-tumor bearing mice.

The target in series [3] is CD28 (Homo sapiens, UniProt P10747). Put plainly: Jurkat/IL2 + K562/OKT3/PD-L1 reporter assay. The series is classed as cell-based. Also on record: host or cells: Jurkat cells expressing an IL-2-luciferase reporter. Particulars: IgV-Fc (inert); various concentrations; FIG. 5.
Series [4] concerns primary human pan T cells. Nature of the series: Cytokine production following PD-L1-dependent costimulation. The series is classed as cell-based. Particulars: mitomycin-c treated K562/OKT3/PDL1 aAPC; FIG. 6.
The subject of series [5] is huPD-L1/B16-F10 cells. Nature of the series: huPD-L1/B16-F10 melanoma model. The series is classed as in vivo, mouse. As to the method:
This variant is an exemplary variant identified to have increased binding affinity for PD-L1 compared to wild-type CD80 and activity to block PD-L1 and CTLA-4 and to provide PD-L1-dependent T cell activation via CD28 costimulatory receptor. To test the anti-tumor activity of the exemplary variant, it was evaluated alone or in combination with an anti-mouse PD-1 monoclonal antibody (clone RMP1-14, rat IgG2a) in mice bearing human PD-L1 (huPD-L1)-expressing B16-F10 tumors, which is a syngeneic mouse melanoma model. This model is an aggressive and, in many cases, a treatment-resistant model.
Subconfluent cells (˜80% confluent) were harvested on the day of implantation (study day 0). The cells were washed twice and brought to a final concentration of 5×10^6 cells/mL in DPBS. Female C57BL/6NJ mice (Jackson Labs, USA) were implanted subcutaneously with approximately 0.5×10^6 huPD-L1/B16-F10 cells. […] The B16-F10 cells at time of implant were evaluated to confirm expression of huPD-L1 by flow cytometry. […]
Tumors were measured with electronic calipers two-dimensionally twice weekly, beginning on day 6 post-tumor cell implant. Tumor volume was calculated as length×(width×2)×0.5, with the length being the longer of the two measurements. […] Calculations for the mean and median were determined on the last day in which at least 70% of mice were alive on study (day 18 post-tumor cell implant).

The target in series [6] is T1, PD-L1/PD-1 interaction (Homo sapiens, UniProt Q9NZQ7).
T1 construct: expressed in transfected cells
T1 sequence (Q9NZQ7 19-290): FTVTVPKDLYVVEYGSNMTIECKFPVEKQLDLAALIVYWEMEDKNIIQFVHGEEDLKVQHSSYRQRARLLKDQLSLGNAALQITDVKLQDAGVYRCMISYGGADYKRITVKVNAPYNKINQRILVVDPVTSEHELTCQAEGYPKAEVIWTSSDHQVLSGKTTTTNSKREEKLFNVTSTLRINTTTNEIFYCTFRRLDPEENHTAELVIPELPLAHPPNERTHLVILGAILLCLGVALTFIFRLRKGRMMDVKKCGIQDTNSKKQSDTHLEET
Nature of the series: PD-L1/PD-1 binding and blocking on CHO/PD-L1 cells. The settings on record: fluorescently conjugated PD-1-Fc; FIG. 7. As to the method: Binding of selected immunomodulatory fusion proteins to cells expressing PD-L1 was assessed to test for blocking of the PD-L1/PD-1 interaction. […] Samples were acquired on a flow cytometer and MFIs of the fluorescently labeled PD-1 were determined by Flowjo software analysis.
The multivalent variant CD80 IgSF domain fusion proteins were assessed to test for blocking of the PD-L1/PD-1 and CTLA-4/CD80 interaction performed substantially as described in Example 15. CHO/OKT3/PD-L1 and CHO/CTLA-4 cells were counted and plated at 100,000 cells/well and then incubated with fluorescently conjugated PD-1-Fc and CD80-Fc. Exemplary multivalent variant CD80 IgSF domain fusion proteins were incubated with the cells for 30 minutes. […] Cells were washed and incubated with 100 nM fluorescently conjugated PD-1-Fc and CD80-Fc competitor for 30 minutes. Cells were then washed and samples were acquired on a flow cytometer and MFIs of the fluorescently labeled molecules were determined.

“H18Y/A26E/E35D/M47L/V68M/A71G/D90G: variant CD80 IgV-Fc (inert), IgV SEQ ID NO:491”: the “percent of p15E-specific CD8+ T cells in tumors” value in series [1] (500 or 1500 μg IP or 100 μg IT, day 11) is given as “significantly greater percent of p15E-specific CD8+ T cells as compared to Fc control-treated mice”. Further, the anti-tumor growth activity result in series [1] (IT injection 100 μg on days 8, 11 and 14) is reported as “substantial anti-tumor growth activity”. Moreover, in series [1] (single IP injection 100, 500, 1500 μg), the “anti-tumor activity (tumor volume)” value was “dose-dependent increase in anti-tumor activity compared to Fc control treatment”. Also, in series [2], the CL is 1.34 mL/day, the F is listed as 99%, the Ka was 4.53 day⁻¹ and the Q is reported as 26.5 mL/day. For the same substance, in series [2], the V1 is recorded as 1.94 mL and the V2 is reported as 8.88 mL. Further, the β in series [2] (time-dependent clearance constant) is 0.0685 day⁻¹. Moreover, the “PD-L1 dependent CD28 costimulation (luciferase activity)” value in series [3] is “induced PD-L1 dependent CD28 costimulation in a dose-dependent manner”. Further, the “IL-2 secretion in culture supernatants” value in series [4] was “resulted in IL-2 secretion in culture supernatants”. Moreover, in series [5] (in combination with anti-PD-1 mAb, day 18), the tumor growth inhibition is given as 92%. Also, the “tumor growth (median tumor volumes)” value in series [5] (in combination with anti-mouse PD-1 mAb, IP days 6, 8, 11) is “significantly reduced tumor growth”. Further, in series [6], the “blocking of binding of PD-1 to PD-L1” value is recorded as “antagonize or block binding of PD-1 to PD-L1”.
